These results are taken from US20240270866A1 (Alector, published 2024).

To fix the notation:
T1: mouse SIRPA overexpressed on CHO cells (mouse, UniProt P97797 32-513)
T1 construct: also called CHO-muSIRPA
T1 sequence: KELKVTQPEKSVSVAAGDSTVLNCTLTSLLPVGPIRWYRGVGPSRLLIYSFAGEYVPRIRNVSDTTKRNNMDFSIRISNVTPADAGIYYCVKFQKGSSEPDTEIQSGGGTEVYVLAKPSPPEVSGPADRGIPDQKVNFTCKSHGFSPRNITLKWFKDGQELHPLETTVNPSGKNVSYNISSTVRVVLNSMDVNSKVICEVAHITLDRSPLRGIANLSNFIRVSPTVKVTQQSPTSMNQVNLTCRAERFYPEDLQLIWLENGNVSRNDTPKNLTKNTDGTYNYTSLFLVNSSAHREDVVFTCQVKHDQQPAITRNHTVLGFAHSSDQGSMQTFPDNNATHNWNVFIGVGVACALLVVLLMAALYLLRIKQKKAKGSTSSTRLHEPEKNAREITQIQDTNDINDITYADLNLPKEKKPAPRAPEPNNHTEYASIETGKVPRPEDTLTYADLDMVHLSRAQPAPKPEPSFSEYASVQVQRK

T2: Mouse SIRPA D1 Fc (mouse, UniProt P97797 32-150, limits assumed)
T2 sequence: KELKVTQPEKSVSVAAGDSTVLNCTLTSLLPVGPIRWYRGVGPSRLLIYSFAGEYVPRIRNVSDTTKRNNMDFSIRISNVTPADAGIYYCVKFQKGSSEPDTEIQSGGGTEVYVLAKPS

B1: SA-8 (antibody, V domains shown)
VH: QVQLVESGGGVVQPGRSLRLSCAASGFTFSSYGMHWVRQAPGKGLEWVAVISYDGSNKYYADSVKGRFTISRDNSKNTLYLQMNSLRAEDTAVYYCAKEPRSYWHGYGMDVWGQGTTVTVSS
VL: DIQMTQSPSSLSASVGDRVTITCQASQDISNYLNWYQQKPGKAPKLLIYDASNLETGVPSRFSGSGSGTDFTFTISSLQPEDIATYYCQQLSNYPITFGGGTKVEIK
notes: IgG; also called SA-8 (parental)
B2: SA-20 (antibody, V domains shown)
VH: B1 VH
VL: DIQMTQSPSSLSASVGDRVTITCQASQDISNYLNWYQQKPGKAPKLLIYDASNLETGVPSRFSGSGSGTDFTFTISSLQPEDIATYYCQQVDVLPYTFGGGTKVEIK
notes: IgG
B3: SA-10 (antibody, V domains shown)
VH: EVQLVESGGGLVQPGRSLRLSCAASGFTFDDYAMHWVRQAPGKGLEWVSGITWNSGSIGYADSVKGRFTISRDNAKNSLYLQMNSLRAEDTALYYCAKGKQYSANYFDYWGQGTLVTVSS
VL: DIQMTQSPSTLSASVGDRVTITCRASQSISSWLAWYQQKPGKAPKLLIYEASSLESGVPSRFSGSGSGTEFTLTISSLQPDDFATYYCQQDNSLPYTFGGGTKVEIK
notes: IgG
B4: SA-44 (antibody, V domains shown)
VH: EVQLVESGGGLVQPGGSLRLSCAASGFTFSSYSMNWVRQAPGKGLEWVSYISSSSSTIYYADSVKGRFTISRDNAKNSLYLQMNSLRAEDTAVYYCAREPFYSADRFDYWGQGTLVTVSS
VL: B3 VL with T10S, L11V, S28G, S30D, E50A, E55Q, E70D, D81E, D91G, N92V
notes: IgG
B5: SA-55 (antibody, V domains shown)
VH: EVQLVESGGGLVQPGGSLRLSCAASGFTFSSYWMSWVRQAPGKGLEWVANIKQDGSEKYYVDSVKGRFTISRDNAKNSLYLQMNSLRAEDTAVYYCARGSPYYDAYDFDLWGRGTLVTVSS
VL: B3 VL with M4L, S28A, E50D, D91Y, N92E, L94F, Y96W
notes: IgG
B6: SA-18 (antibody, V domains shown)
VH: EVQLVESGGGLVQPGGSLRLSCAASGFTFSSYWMSWVRQAPGKGLEWVANIKSDGSEKYYVDSVKGRFTISRDNAKNSLYLQMNSLRAEDTAVYYCARDLSYEPSYPFDIWGQGTMVTVSS
VL: DIQMTQSPSSVSASVGDRVTITCRASQGISSWLAWYQQKPGKAPKLLIYAASSLQSGVPSRFSGSGSGTDFTLTISSLQPEDFATYYCQQALSFPFTFGGGTKVEIK
notes: IgG
B7: SA-5 (antibody, V domains shown)
VH: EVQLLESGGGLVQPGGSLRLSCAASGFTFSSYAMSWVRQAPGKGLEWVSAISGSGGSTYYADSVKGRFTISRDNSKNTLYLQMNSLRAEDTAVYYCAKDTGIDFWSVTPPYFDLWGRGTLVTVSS
VL: B6 VL with M4L, G28D, A91G, L92Y, S93I, F96R
notes: IgG; also called SA-5 (parental)
B8: SA-30 (antibody, V domains shown)
VH: QVQLVESGGGVVQPGRSLRLSCAASGFTFSSYGMHWVRQAPGKGLEWVAVIWYDGSNKYYADSVKGRFTISRDNSKNTLYLQMNSLRAEDTAVYYCARDTGSATTMWLYGMDVWGKGTTVTVSS
VL: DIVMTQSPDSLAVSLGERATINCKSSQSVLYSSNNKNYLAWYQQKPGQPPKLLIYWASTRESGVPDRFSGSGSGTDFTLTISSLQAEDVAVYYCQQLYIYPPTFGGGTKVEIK
notes: IgG
B9: SA-40 (antibody, V domains shown)
VH: QVQLVQSGAEVKKPGASVKVSCKASGYTFTSYYMHWVRQAPGQGLEWMGIINPSGGSTTYAQKFQGRVTMTRDTSTSTVYMELSSLRSEDTAVYYCAREGLASTGVSDYYYMDVWGKGTTVTVSS
VL: EIVLTQSPGTLSLSPGERATLSCRASQSVSSSYLAWYQQKPGQAPRLLIYGASSRATGIPDRFSGSGSGTDFTLTISRLEPEDFAVYYCQQLAHSPFTFGGGTKVEIK
notes: IgG
B10: SA-17 (antibody, V domains shown)
VH: QVQLVQSGAEVKKPGSSVKVSCKASGGTFSSYAISWVRQAPGQGLEWMGGIIPIFGTASYAQKFQGRVTITADESTSTAYMELSSLRSEDTAVYYCARDLSAFYVGPFDYWGQGTLVTVSS
VL: EIVMTQSPATLSVSPGERATLSCRASQSVSSSLAWYQQKPGQAPRLLIYGASTRATGIPARFSGSGSGTEFTLTISSLQSEDFAVYYCQQDYIWPLTFGGGTKVEIK
notes: IgG
B11: SA-41 (antibody, V domains shown)
VH: QVQLQESGPGLVKPSETLSLTCTVSGGSISSYYWSWIRQPPGKGLEWIGSIYYSGSTNYNPSLKSRVTISVDTSKNQFSLKLSSVTAADTAVYYCAREGVAARGYYYGMDVWGQGTTVTVSS
VL: B10 VL with D91Y, Y92I, I93T, W94Y, L96I
notes: IgG
B12: SA-42 (antibody, V domains shown)
VH: B11 VH
VL: B10 VL with S32N, Y49F, D91Y, Y92N, I93A, W94Y, L96I
notes: IgG
B13: SA-15 (antibody, V domains shown)
VH: QVQLVQSGAEVKKPGSSVKVSCKASGGTFSSYAISWVRQAPGQGLEWMGGIIPIFGTANYAQKFQGRVTITADESTSTAYMELSSLRSEDTAVYYCARDGSYSYATYWGQGTLVTVSS
VL: EIVLTQSPATLSLSPGERATLSCRASQSVSSYLAWYQQKPGQAPRLLIYDASNRATGIPARFSGSGSGTDFTLTISSLEPEDFAVYYCQQPYNFPLTFGGGTKVEIK
notes: IgG
B14: SA-11 (antibody, V domains shown)
VH: EVQLVESGGGLVQPGRSLRISCAASGFTFGDYAMHWVRQAPGKGLEWVSGISWNSGSIGYADSVKGRFTISRDNAKNSLYLQMNSLRAEDTALYYCAKTRYGYYSYDFDLWGRGTLVTVSS
VL: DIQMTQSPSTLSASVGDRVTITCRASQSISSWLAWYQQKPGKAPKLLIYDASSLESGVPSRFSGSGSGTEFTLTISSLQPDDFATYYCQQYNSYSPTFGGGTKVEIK
notes: IgG

Residue numbers refer to the chain shown, from its start.

In the first assay the target is T1, mouse SIRPA overexpressed on CHO cells. The experiment in a line: flow, CHO-muSIRPA.
B1: the binding result is given as “no binding (tested: 1 ug/ml)”.
For B2, the binding result is “no binding (tested: 1 ug/ml)”.
The same measure, in the same setting: in the case of B3 it was “no binding (tested: 1 ug/ml)”.
B4: the binding result is given as “no binding (tested: 1 ug/ml)”.
Still for that read-out and setting: the result for B5 reads “no binding (tested: 1 ug/ml)”; that for B6, “no binding (tested: 1 ug/ml)”.
Still for that read-out and setting: in the case of B7 it was “no binding (tested: 1 ug/ml)”; in that of B8, “no binding (tested: 1 ug/ml)”.
On the same count and under the same terms, the result for B9 reads “no binding (tested: 1 ug/ml)”.
As for B10, the binding result was “no binding (tested: 1 ug/ml)”.
On to B11, for which the binding result is “no binding (tested: 1 ug/ml)”.
Still for that read-out and setting: the result for B12 reads “no binding (tested: 1 ug/ml)”.
Same read-out and setting: the result for B13 reads “no binding (tested: 1 ug/ml)”; that for B14, “no binding (tested: 1 ug/ml)”.

The target in a further assay is T3, human SIRPA overexpressed on CHO cells (human, UniProt P78324 31-504).
T3 construct: also called CHO-huSIRPA
The assay is described as follows: flow, CHO-huSIRPA.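 Further: Anti-SIRPA antibodies applied at 1 µg/mL for 1 h on ice, binding read by flow cytometry using a PE-labelled secondary antibody.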
Take B1: the “relative MFI” value was 57.8 fold over background.
B2: the “relative MFI” value amounted to 5.19 fold over background.
Same read-out and setting: the result for B3 reads 4.62 fold over background.
Still for that read-out and setting: in the case of B4 it was 1.2 fold over background; in that of B6, 2.13 fold over background; in that of B8, 41.2 fold over background.
Same read-out and setting: the result for B9 reads 0.542 fold over background.
Turning to B10, the “relative MFI” value was 0.989 fold over background.
On the same count and under the same terms, in the case of B11 it was 0.989 fold over background; in that of B12, 1.29 fold over background; in that of B13, 0.768 fold over background.
Consider B14, for which the “relative MFI” value was found to be 0.972 fold over background.

In a further assay the target is T2, Mouse SIRPA D1 Fc. The experiment in a line: ForteBio IgG avid.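 Further: antibody IgG captured on AHQ biosensors, then 100 nM Fc-fused SIRP antigen applied for 3 min, followed by 3 min buffer dissociation, kinetics fitted to a 1:1 model.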
Procedure: (§1) Briefly, ForteBio affinity measurements were performed by loading IgGs on-line onto AHQ sensors. Sensors were equilibrated off-line in assay buffer for 30 min and then monitored on-line for 60 seconds for baseline establishment. For avid binding measurement, sensors with loaded IgGs were exposed to 100 nM antigen (human SIRPA or SIRPβ1 Fc fusion) for 3 min, afterwards they were transferred to assay buffer for 3 min for off-rate measurement. Additional avid binding was determined by loading biotinylated SIRPA monomer on SA sensors and exposure to 100 nM IgG in solution. Monovalent binding measurements were obtained by loading human SIRPA or SIRPβ1 Fc fusion antigens to AHQ sensor and followed by exposure to 100 nM anti-SIRPA antibody Fab. Additional monovalent measurements were made by loading biotinylated human SIRPA or SIRPβ1 monomer to SA sensor followed by exposure to 100 nM Fab in solution. Kinetics data were fit using a 1:1 binding model in the data analysis software provided by ForteBio.
As for B1, the binding result is “no binding (tested: 100 nM)”.
Same read-out and setting: the result for B2 reads “no binding (tested: 100 nM)”; that for B3, “no binding (tested: 100 nM)”.
For B4, the binding result is given as “no binding (tested: 100 nM)”.
Take B5: the binding result was “no binding (tested: 100 nM)”.
Still for that read-out and setting: in the case of B6 it was “no binding (tested: 100 nM)”; in that of B7, “no binding (tested: 100 nM)”.
Same read-out and setting: the result for B8 reads “no binding (tested: 100 nM)”; that for B9, “no binding (tested: 100 nM)”.
Same read-out and setting: the result for B10 reads “no binding (tested: 100 nM)”; that for B11, “no binding (tested: 100 nM)”; that for B12, “no binding (tested: 100 nM)”.
Regarding B13, the binding result is “no binding (tested: 100 nM)”.
As for B14, the binding result is on record as “no binding (tested: 100 nM)”.

The target of the next assay is Human SIRPb D1 Fc (human, UniProt O00241 30-148, limits assumed). The experiment in a line: ForteBio IgG avid.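 Further: antibody IgG captured on AHQ biosensors, then 100 nM Fc-fused SIRP antigen applied for 3 min, followed by 3 min buffer dissociation, kinetics fitted to a 1:1 model.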
Chain of Human SIRPb D1 Fc (O00241 30-148 limits assumed): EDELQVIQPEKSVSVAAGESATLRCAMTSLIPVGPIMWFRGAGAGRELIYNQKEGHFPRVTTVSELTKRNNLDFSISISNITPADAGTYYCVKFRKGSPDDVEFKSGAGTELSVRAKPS
Procedure: as §1
As for B2, the binding result is on record as “no binding (tested: 100 nM)”.
Still for that read-out and setting: in the case of B3 it was “no binding (tested: 100 nM)”; in that of B4, “no binding (tested: 100 nM)”.
Same read-out and setting: in the case of B6 it was “no binding (tested: 100 nM)”; in that of B8, “no binding (tested: 100 nM)”.
The same measure, in the same setting: in the case of B9 it was “no binding (tested: 100 nM)”; in that of B10, “no binding (tested: 100 nM)”; in that of B11, “no binding (tested: 100 nM)”.
Take B12: the binding result is reported as “no binding (tested: 100 nM)”.
B13 had an equilibrium dissociation constant (Kd) of 28.4 nM.
For the molecule B14, the binding result is “no binding (tested: 100 nM)”.

For a further assay, the target named is T1, mouse SIRPA overexpressed on CHO cells. The experiment in a line: flow, CHO-muSIRPA. This is another data set of the same source.
In the case of B1, the “relative MFI” value is 0.5 fold over background.
On to B2, for which the “relative MFI” value turned out to be 0.786 fold over background.
As for B3, the “relative MFI” value came to 0.583 fold over background.
For the molecule B4, the “relative MFI” value came to 0.56 fold over background.
Still for that read-out and setting: in the case of B5 it was 0.464 fold over background; in that of B6, 0.56 fold over background; in that of B7, 0.533 fold over background.
Same read-out and setting: in the case of B8 it was 0.595 fold over background; in that of B9, 0.446 fold over background; in that of B10, 0.476 fold over background.
On the same count and under the same terms, in the case of B11 it was 0.47 fold over background; in that of B12, 0.443 fold over background; in that of B13, 0.512 fold over background.
Take B14: the “relative MFI” value came out at 0.851 fold over background.
